# Reference: patent US20250277038A1 (SHANGHAI JEMINCARE PHARMACEUTICAL, published 2025)
# How the values were obtained:
# [1] = biological target: T1, human PD-L1 (Acro, Catalog Number: H5229) (human, UniProt Q9NZQ7 19-238); test: BLI, Octet RED96e, antibody on AHC sensor, antigen 100 nM, 1:1 fit
# T1 construct: Soluble antigen in the BLI assay; also called antigen
# Description: (2) Detection of samples on machines (Octet Data Acquisition 11.1.0.11): First, the sample was added into a 96-well plate (Greiner bio-one, 655209) with a system of 200 μL/well. Then the software parameters were set, the plate temperature was set to 30° C., and the frequency of collecting standard dynamic signals was 5.0 HZ. Next, the AHC sensor (Fortébio, Catalog Number: 18-0015) was pre-wetted with 1xPBST for 10 minutes, and then the sample was detected on the instrument. Each cycle incluedes the following steps: 1) immersing in buffer for 60 seconds; 2) detecting whether the antigen nonspecifically binding to the sensor; 3) regeneration of 10 mM glycine solution with pH 1.7; 4) immersing in the buffer for 60 seconds; 5) immobilizing the antibody on the sensor for 20 seconds; 6) immersing the sensor in the buffer for 180 seconds; 7) the antigen binding to the antibody for 180 seconds; 8) dissociating the antigen from the antibody for 10 minutes; 9) regenerating the sensor.
# [2] = biological target: T2, human PD-L1 protein on HEK293 cell (human, UniProt Q9NZQ7 19-290); test: flow cytometry screening on HEK293-PD-L1 cells
# T2 construct: whole, on cells; also called HEK293-hPD-L1; HEK293-PD-L1
# Description: Clones that specifically bind to HEK293-PD-L1 cells and can simultaneously block the binding of receptor PD-1 to HEK293-hPD-L1 cells were screened from the fusion plate by flow cytometer and subcloning was carried out by limited dilution method, and finally a monoclonal that can secrete specific antibodies was screened. Monoclonal antibodies were obtained by small-scale production and purification in serum-free medium for subsequent identification, including the detection of the binding ability of antibodies to HEK293-PD-L1, the function of blocking binding of PD-1 to HEK293-hPD-L1 cell, and the mixed lymphocyte experiment to finally obtain candidate anti-human PD-L1 monoclonal antibody 50G2-3. The sequences of the variable regions of murine hybridoma clone 50G2-3 obtained by monoclonal antibody sequencing is as follows: […]
# T1 sequence (Q9NZQ7 19-238 limits assumed): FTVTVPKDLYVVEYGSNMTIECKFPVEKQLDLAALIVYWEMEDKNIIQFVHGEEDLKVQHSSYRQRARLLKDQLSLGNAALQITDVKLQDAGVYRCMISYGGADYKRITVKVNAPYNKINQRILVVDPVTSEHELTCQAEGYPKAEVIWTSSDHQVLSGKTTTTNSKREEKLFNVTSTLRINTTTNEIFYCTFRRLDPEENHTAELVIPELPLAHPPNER
# T2 sequence (Q9NZQ7 19-290): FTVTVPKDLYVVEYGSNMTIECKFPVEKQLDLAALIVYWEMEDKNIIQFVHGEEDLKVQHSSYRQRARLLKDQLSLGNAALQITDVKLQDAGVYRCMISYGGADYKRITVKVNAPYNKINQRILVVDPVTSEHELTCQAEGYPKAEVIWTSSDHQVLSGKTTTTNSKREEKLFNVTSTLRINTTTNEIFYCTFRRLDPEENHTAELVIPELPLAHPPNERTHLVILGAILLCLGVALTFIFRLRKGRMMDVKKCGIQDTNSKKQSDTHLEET
Binder,Kd [1] [pM],koff [1] [s⁻¹],kon [1] [M⁻¹ s⁻¹],binding result [2]
"1910G2HzL7H7 (antibody, V domains shown, Only the variable domains are tied to the name; Full chains are not tied to the name; also called humanized antibody 1910G2HzL7H7; 1910G2HzL7 + 1910G2HzH7) VH: EVQLVESGGGLVQPGGSLRLSCAASGFTFSNFWMTWVRQAPGKGLEWVASITHSGGITYYADSVKGRFTISRDDSKSTLYLQMNSLRAEDTAVYYCSRDPTEAPFDYWGQGTLVTVSS VL: DIQMTQSPSSLSASVGDRVTITCQASQNINNYIAWYQQKPGKAPKQLIRYTSTLVSGVPSRFSGSGSGKDYTFTISSLQPEDIATYYCLQYDNVPNTFGQGTKLEIK",302,0.000289,958000,–
"anti-human PD-L1 monoclonal antibody 50G2-3 (antibody, V domains shown, also called murine hybridoma clone 50G2-3) VH: EVQLVESGGGLVQPGRSLKLSCVASGFTFSNFWMTWIRQAPGKGLEWVASITHSGGITYYPDSVKGRFTISRDDAKSTLYLQMNSLRSEDTATYYCSRDPTEAPFDYWGQGVMVTVSS VL: DIQMTQSPPSLSASLGDQVTITCQASQNINNYIAWYQQKPGKAPRQLIRYTSTLVSGTPSRFSGSGSGKDYSFSISNVESEDIASYYCLQYDNVPNTFGAGTKLELK",–,–,–,binds
"1910G2HzL4H4 (antibody, V domains shown, Only the variable domains are tied to the name; Full chains are not tied to the name; also called humanized antibody 1910G2HzL4H4; 1910G2HzL4 + 1910G2HzH4) VH: EVQLVESGGGLVQPGGSLRLSCAASGFTFSNFWMTWVRQAPGKGLEWVASITHSGGITYYPDSVKGRFTISRDDSKNTLYLQMNSLRAEDTAVYYCSRDPTEAPFDYWGQGTLVTVSS VL: DIQMTQSPSSLSASVGDRVTITCQASQNINNYIAWYQQKPGKAPKQLIRYTSTLVSGVPSRFSGSGSGKDYTFTISSLQPEDIATYYCLQYDNVPNTFGQGTKLEIK",160,0.000165,1.03e+06,–
"1910G2HzL3H3 (antibody, V domains shown, Only the variable domains are tied to the name; Full chains are not tied to the name; also called humanized antibody 1910G2HzL3H3; 1910G2HzL3 + 1910G2HzH3) VH: EVQLVESGGGLVQPGGSLRLSCAASGFTFSNFWMSWVRQAPGKGLEWVASITHSGGITYYVDSVKGRFTISRDNAKSSLYLQMNSLRAEDTAVYYCSRDPTEAPFDYWGQGVMVTVSS VL: DIQMTQSPSSLSASVGDRVTITCQASQNINNYIAWYQQKPGKAPKQLIRYTSTLVSGTPSRFSGSGSGKDYTFTISNLQPEDIATYYCLQYDNVPNTFGQGTKLEIK",452,0.000477,1.06e+06,–
"1910G2HzL2H2 (antibody, V domains shown, Only the variable domains are tied to the name; Captured on an AHC sensor and detected with anti-human secondary antibody; also called humanized antibody 1910G2HzL2H2; 1910G2HzL2 + 1910G2HzH2) VH: EVQLVESGGGLVQPGGSLRLSCAASGFTFSNFWMTWVRQAPGKGLEWVASITHSGGITYYVDSVKGRFTISRDDAKSSLYLQMNSLRAEDTAVYYCSRDPTEAPFDYWGQGTLVTVSS VL: DIQMTQSPSSLSASVGDRVTITCQASQNINNYIAWYQQKPGKAPKQLIRYTSTLVSGVPSRFSGSGSGKDYTFTISSLQPEDIATYYCLQYDNVPNTFGQGTKLEIK",244,0.00025,1.03e+06,–
"1910G2HzL9H9 (antibody, V domains shown, Only the variable domains are tied to the name; Full chains are not tied to the name; also called humanized antibody 1910G2HzL9H9; 1910G2HzL9 + 1910G2HzH9) VH: EVQLVESGGGLVQPGGSLRLSCAASGFTFSNFWMSWVRQAPGKGLEWVASITHSGGITYYADSVKGRFTISRDDSKNTLYLQMNSLRAEDTAVYYCSRDPTEAPFDYWGQGTLVTVSS VL: DIQMTQSPSSLSASVGDRVTITCQASQNINNYIAWYQQKPGKAPKQLIRYTSTLVSGVPSRFSGSGSGKDFTFTISSLQPEDIATYYCLQYDNVPNTFGQGTKLEIK",214,0.00021,980000,–
